Laboratory results from patent US8367390B2, “Galactanase variants” (Novozymes A/S, priority 2002, dated 2013).

Assay: Activity with ONPG, release of o-nitrophenol (ONP) at 405 nm
Type: biochemical
Details: for Time (min) to increase A405 by: 0.025 / Time (min) to increase A405 by: 0.05 / Time (min) to increase A405 by: 0.1 / Time (min) to increase A405 by: 0.2 / Time (min) to increase A405 by: 0.4 / Time (min) to increase A405 by: 0.8 / Time (min) to increase A405 by: 1.6 / Time (min) to increase A405 by: 3.2: Table 8, ONPG 5 mg/ml
Procedure: The activity of HIGAL and MTGAL with ONPG was tested by mixing 200 microliters (normally 5.5 mg/ml) ONPG in 50 mM sodium acetate, 1 mM CaCl2, 0.01% Triton X-100, pH 6.5 with 25 microliters galactanase (normally 1 mg/ml) in the well of a microtiter plate. Release of o-nitrophenol (ONP) was measured at room temperature at 405 nm every 10 seconds normally for 30 min on a SpectraMaxPlus (Molecular Devices). Effects on the observed release of ONP was studied with varied enzyme concentration, ONPG concentration and with addition of galactose (Gal), beta-1,4-galactobiose (Gal2) (Megazyme), beta-1,4-galactotriose (Gal3), beta-1,4-galactotetraose (Gal4), glucose (Glu), arabinose (Ara), galacturonic acid (GalA), maltose (Mal) or maltotriose (Mal3).
In Tables 8-11 below, incubation times required to increase the observed absorbance at 405 nm by given amounts are listed. Cells marked ‘n.r.’ indicate that the increase in absorbance was not reached in the experiment. In general, the initial increase in absorbance at 405 nm was very slow, but after a lag phase the rate of ONP release often increased drastically—often approximately exponentially. The most likely explanation for the observed kinetics is that ONPG reacts with the enzyme to give an enzyme-galactosyl intermediate which hydrolyses very slowly. Instead, the Gal of the intermediate is released by transglycosylation, initially with ONPG or added sugar as acceptor. In cases where the rate of ONP release increases, these transglycosylation products are even better acceptors than the initial ones. […] More likely, Gal inhibits the subsequent transglycosylation, which requires binding of ONPG to the +1 and +2 subsites, e.g., by binding to the +2 subsite. With 50 mg/ml Gal added (results not shown) release of ONP was even slower with only insignificant increase of absorbance at 405 nm in 30 min.

B1: MTGAL: GH Family 53 galactanase from Myceliophthora thermophila, SEQ ID NO: 1 (wild type parent) (protein, listed as Myceliophthora thermophila)
chain: ALTYRGVDWSSVVVEERAGVSYKNTNGNAQPLENILAANGVNTVRQRVWVNPADGNYNLDYNIAIAKRAKAAGLGVYIDFHYSDTWADPAHQTMPAGWPSDIDNLSWKLYNYTLDAANKLQNAGIQPTIVSIGNEIRAGLLWPTGRTENWANIARLLHSAAWGIKDSSLSPKPKIMIHLDNGWDWGTQNWWYTNVLKQGTLELSDFDMMGVSFYPFYSSSATLSALKSSLDNMAKTWNKEIAVVETNWPISCPNPRYSFPSDVKNIPFSPEGQTTFITNVANIVSSVSRGVGLFYWEPAWIHNANLGSSCADNTMFSQSGQALSSLSVFQRI
modifications: mat_peptide (1)..()
Gal 5 mg/ml
  Slowing of ONP release by addition of Gal: about a factor of two
Enzyme 28 μg/ml, no sugar
  Time (min) to increase A405 by: 0.025: 40.4 min
  Time (min) to increase A405 by: 0.05: n.r.
  Time (min) to increase A405 by: 0.1: n.r.
  Time (min) to increase A405 by: 0.2: n.r.
  Time (min) to increase A405 by: 0.4: n.r.
  Time (min) to increase A405 by: 0.8: n.r.
  Time (min) to increase A405 by: 1.6: n.r.
  Time (min) to increase A405 by: 3.2: n.r.
Enzyme 55 μg/ml, Gal 5 mg/ml
  Time (min) to increase A405 by: 0.025: 40.2 min
  Time (min) to increase A405 by: 0.05: n.r.
  Time (min) to increase A405 by: 0.1: n.r.
  Time (min) to increase A405 by: 0.2: n.r.
  Time (min) to increase A405 by: 0.4: n.r.
  Time (min) to increase A405 by: 0.8: n.r.
  Time (min) to increase A405 by: 1.6: n.r.
  Time (min) to increase A405 by: 3.2: n.r.
Enzyme 55 μg/ml, no sugar
  Time (min) to increase A405 by: 0.025: 29.9 min
  Time (min) to increase A405 by: 0.05: 42.5 min
  Time (min) to increase A405 by: 0.1: 54.5 min
  Time (min) to increase A405 by: 0.2: n.r.
  Time (min) to increase A405 by: 0.4: n.r.
  Time (min) to increase A405 by: 0.8: n.r.
  Time (min) to increase A405 by: 1.6: n.r.
  Time (min) to increase A405 by: 3.2: n.r.
Enzyme 110 μg/ml, Gal 5 mg/ml
  Time (min) to increase A405 by: 0.025: 26.9 min
  Time (min) to increase A405 by: 0.05: 44.5 min
  Time (min) to increase A405 by: 0.1: n.r.
  Time (min) to increase A405 by: 0.2: n.r.
  Time (min) to increase A405 by: 0.4: n.r.
  Time (min) to increase A405 by: 0.8: n.r.
  Time (min) to increase A405 by: 1.6: n.r.
  Time (min) to increase A405 by: 3.2: n.r.
Enzyme 110 μg/ml, no sugar
  Time (min) to increase A405 by: 0.025: 14.0 min
  Time (min) to increase A405 by: 0.05: 20.5 min
  Time (min) to increase A405 by: 0.1: 26.4 min
  Time (min) to increase A405 by: 0.2: 31.4 min
  Time (min) to increase A405 by: 0.4: 34.5 min
  Time (min) to increase A405 by: 0.8: 39.2 min
  Time (min) to increase A405 by: 1.6: 43.9 min
  Time (min) to increase A405 by: 3.2: 46.7 min
